Laboratory results: paper PMC2580030
Several values for one entry are separate records, joined by “and”; a condition that tells them apart may be missing. Identical values can stand only once.

Tests used:
[1] = target: recombinant soluble empty (peptide free) HLA-DR1 (human); experiment: native gel or EMSA
[2] = target: recombinant soluble empty (peptide free) HLA-DR1 (human); experiment: fluorescence polarisation

| Substance | t1/2 [1] [min] | loss of bound peptide during the first 24 hr [2] |
| --- | --- | --- |
| HA 306-318 P2,7 VL→SP peptide, fluorescein-labeled | 40.4 |  |
| HA 306-318 P2,7,10 VLA→SPG peptide, fluorescein-labeled | 9.9 |  |
| HA 306-318 P2,3 VK→SD peptide, fluorescein-labeled | 4.6 |  |
| HA 306-318 P10 A→G peptide, fluorescein-labeled | 69 |  |
| HA 306-318 P7,10 LA→PG peptide, fluorescein-labeled | 92.9 |  |
| FAM labeled P7 L→C HA peptide |  | 18% and 3% |
| HA 306-318 P7 L→P peptide, fluorescein-labeled | 268 |  |
| HA 306-318 P3,10 KA→DG peptide, fluorescein-labeled | 7.92 |  |
| HA 306-318 P3 K→D peptide, fluorescein-labeled | 43.8 |  |
| HA 306-318 P2,10 VA→SG peptide, fluorescein-labeled | 11.7 |  |
| HA 306-318 P3,7 KL→DP peptide, fluorescein-labeled | 15.9 |  |
